Test results as given in patent WO2021160116A1.

Target: human FcRn mut (L320A, L321A) co-transfected with human β2M, stably overexpressed on HEK293 cells (human) (UniProt P55899)
Test: flow cytometry competition, Argx-113 against biotin-hIgG (100 μg/mL) on HEK293 cells overexpressing human FcRn mut, pH 6.0

Chain of human FcRn mut (L320A, L321A) co-transfected with human β2M, stably overexpressed on HEK293 cells (human) (P55899 24-365 L343A/L344A, chain 1 of 2): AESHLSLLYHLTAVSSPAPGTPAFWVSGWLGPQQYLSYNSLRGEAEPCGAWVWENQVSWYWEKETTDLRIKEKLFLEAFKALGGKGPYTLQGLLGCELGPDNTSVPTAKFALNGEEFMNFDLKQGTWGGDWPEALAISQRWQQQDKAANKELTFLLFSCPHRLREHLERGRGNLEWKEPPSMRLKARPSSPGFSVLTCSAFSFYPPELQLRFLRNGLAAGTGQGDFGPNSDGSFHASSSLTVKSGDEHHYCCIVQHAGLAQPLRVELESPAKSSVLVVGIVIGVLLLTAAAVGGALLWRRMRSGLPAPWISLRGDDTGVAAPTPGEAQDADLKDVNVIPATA
Chain of human FcRn mut (L320A, L321A) co-transfected with human β2M, stably overexpressed on HEK293 cells (human) (P61769 21-119, chain 2 of 2, further chain): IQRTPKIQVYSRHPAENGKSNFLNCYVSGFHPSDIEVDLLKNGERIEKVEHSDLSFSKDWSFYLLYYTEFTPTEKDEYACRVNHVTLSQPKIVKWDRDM

With Argx-113 the IC50 was 9.77 nM.
